Variants at the floor of the assay were thinned out.
B1: TPR 5TU (parent)
chain: GGAUCUUCUCGAUCUAACAAAAAAGACAAAUCUGCCACAAAGCUUGAGAGCAUCUUCGGAUGCAGAGGCGGCAGCCUUCGGUGGCGCGAUAGCGCCAACGUUCUCAACUAUGACACGCAAAACGCGUGCUCCGUUGAAUGGAGUUUAUCAUG

Variants of: B1
Test: polymerase ribozyme fitness, log enrichment relative to wild type (log ratio); higher = more active; in vitro selection for triplet polymerase activity
Procedure, shortened: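 After PCR construction and transcription, each subunit's mutant library from a heterodimeric triplet polymerase ribozyme was annealed with a biotinylated primer, the partner subunit and triplets. Incubation was frozen, at −7 °C, and extended constructs were gel-excised, bound to streptavidin beads and amplified by RT-PCR, in one selection round done in triplicate. Fitness is the logarithm of a genotype's enrichment divided by that of the wild type, from inverse-variance-weighted replicate averages of Illumina-sequenced inputs and outputs. The base of the logarithm is 2, and genotypes needed ≥10 input reads and ≥1 read per output.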

Variant	polymerase ribozyme fitness (log ratio)
A49C U53A G81C A98U G100A C103A	≤ -4.2
A49G G133C	-2.21
A49U A60C	-3.47
G50A C57U G74U C75G C87A A97C A150G	≤ -4.2
G50A A66G	-3.75
A49U U61A C87A G140C	≤ -4.2
A49G G140C	-3.88
A49G G140A	-3.77
A49C G62C U139C	≤ -4.2
A49G A52C G59A G84A G94U C103U	≤ -4.2
G50A G65A C85U	-3.49
G50C C76A G83U C103A C132G U145G	≤ -4.2
G50A G84U G141U	-3.31
G50A C54U U55A A73G	≤ -4.2
A49C G50C U53A C79A A137U	≤ -4.2
A49G C63U G81C U104G	-2.29
A49G G50U C51U C96U A98C G126A U134G U146A	-3.95
A49U A142C	-1.43
A49U A110U G117U	≤ -4.2
G50A C57A C99A	-2.67
G50A C87U A97U	-3.34
A49G C93A U134A U146G	≤ -4.2
G50A A115G	-2.49
G50A G84A U101C G117C U146G	-0.884

Variant	polymerase ribozyme fitness (log ratio)
A49C U77G G94C	≤ -4.2
G50C A119U	-3.92
A49C G67A G92U A138C	≤ -4.2
A49C U82A G86A G126A	≤ -4.2
G50A C54U C57A G84U C103G G124C G133U G141C	≤ -4.2
A49U C96G	-0.972
G50A U102A	-3.08
A49U A119C U127A U134A	≤ -4.2
G50A A91U C99U C103G C108U A137C G141C	≤ -4.2
A49G U55G C57U A60G C75G C76U U90A U102C U134G G140C	≤ -4.2
A49U C69G C75A U90G	≤ -4.2
G50A C95G	-3.01
G50A C95U	-2.44
A49C G84C U90G C103G A115U	≤ -4.2
G50A C85U C96U C105U G141A	-1.94
G50C C51U G92U	-2.09
A49G G126U	-0.157
A49C C95U C96G	-3.85
A49G C125G	-0.947
A49C C87A C132A	≤ -4.2
G50A A150U	-1.41
A49G G62U C63U C96A A122U	-3.19
A49U U61A A138C G140C	≤ -4.2
A49U C57G U61A A73G G88C A97C U135A G152A	≤ -4.2

Variant	polymerase ribozyme fitness (log ratio)
A49G G50C C95U A98G U145G	-2.77
G50A U53A A91U G124A C131G A137C	≤ -4.2
A49C G141A	-3.79
A49C G141C	-4.14
A49U G59A A115U A119C	-3.36
G50A G84A C95G U146C	-0.861
G50C A64C G80A A120C G128U	≤ -4.2
A49C C103G A110C	≤ -4.2
G50A G58C	-1.06
G50A U145C	-0.761
A49C G68A	≤ -4.2
A49G	-0.331
A49U	-0.673
A49G G50A U55A U146C	-1.98
A49C G59U U77C G81C U109G G141C	≤ -4.2
G50A G58C C76U C85G G141U	-4.1
G50A G65A A89U U101A A106C	-4.2
G50C C54U G86A C108U	≤ -4.2
A49G C114U U144A	-4.06
G50A A106G C118U	-1.6
A49G G50A C54A A66G U82A C108U C125A	≤ -4.2
G50A A97G A138C	-4.01
A49C G94C	-4.16
A49U U53A G86A C87A A89G C114U	≤ -4.2

Variant	polymerase ribozyme fitness (log ratio)
A49U G136A G141A	-0.805
G50C C75U C85G	≤ -4.2
G50A C93U G152A	-3.09
G50A A52C G81C	-2.82
A49G U55A A73G	-3.1
A49U C85G	-2.96
A49G A73G	-0.67
A49C G70A C75G C93G A97C C116G C118G	≤ -4.2
G50A C76A G92A U101G G128U U130G	≤ -4.2
G50A C57A C76G C93G	≤ -4.2
A49C U77G A121C U148A	≤ -4.2
G50A G84U	-1.58
G50A G84A	-2.43
A49C G62U A107U G152A	≤ -4.2
A49U G83A U145A	-1.1
G50A G143C	-3.85
A49G C51G	-2.66
A49C G65C G88U C96A	-4.03
G50C A66C A91U A106C A137C U148A	≤ -4.2
A49G G92U	0.21
A49G C75U C96G	-2.68
G50A G86A C131U	-1.93
G50A U77A A106U A113G A121U C131U	≤ -4.2
A49G C95U	-0.995

Variant	polymerase ribozyme fitness (log ratio)
A49C G74C C87A C125U	≤ -4.2
A49G C105U A113G A115C A147U	≤ -4.2
G50A C85G C93A C129G	≤ -4.2
G50C C75U C93G A115G	≤ -4.2
A49U A89U C132U	-2.65
G50A U55A G70A G83C U101A U104A C105G G124U	≤ -4.2
A49G G59C G67A G70A U77C U82C A89G C95G	≤ -4.2
A49U G88A	≤ -4.2
G50A A52C G84U A122U G141U	-3.68
G50A A52C	-3.13
A49C U53A G86U A115G	≤ -4.2
G50A A64C C95G C114U	≤ -4.2
G50A G94U C116G	-1.85
G50A C57A A66C G81U G86C A97C	≤ -4.2
G50C A91G	-4
A49U G62C C123U	-2.38
A49C G86A C129A C132U U148A G152U	≤ -4.2
A49C G50C G81C A110U	≤ -4.2
A49G G50A C95U U145C	-2.54
A49U C103G	≤ -4.2
A49G U56G G83C	-2.85
A49U U55G C103A U111C A138G G152A	≤ -4.2
G50C	-2.52
G50A	-1.02

Variant	polymerase ribozyme fitness (log ratio)
G50A C85G	-3.34
G50C C54U	-2.6
G50A G141C	-1.77
A49U C54U	-1.34
A49U A91G	≤ -4.2
G50C A142U	-3.9
A49G A52C	-1.27
A49G U55A C79U G92U C95A G140A	≤ -4.2
A49C G50U G71C G94C G136A U144C	≤ -4.2
G50A G83A A97G	-0.838
A49G A91G	-4.05
G50A G92A A106G	≤ -4.2
A49U C85G A115C	-3.64
G50A A107U	-4.13
A49G C87A A89C U90A C129U	≤ -4.2
A49G G50A U53A U77G C79U G92U U109G A122U U134C U135C C149A A150U	≤ -4.2
G50A A110G	-3.88
G50A C76U C93U A98C	-3.32
G50C A73G C87A	≤ -4.2
G50C A64G A89C G94C U101G A106U G133U	-4.12
A49G G74C U101G G112C A122U U127A A138C	≤ -4.2
G50A C93G G124A C125U G133A U135G A150G	≤ -4.2
G50A G68A C96G C99U G136A	≤ -4.2
A49C U56A A60U	≤ -4.2

Variant	polymerase ribozyme fitness (log ratio)
A49U A73G G81C C85U	-2.64
A49G A52G U55A G67A A107U G133C A137G U139C	≤ -4.2
G50A C125U	-1.35
G50A U56G C85U A115C U144G	-2.74
A49C C99G	≤ -4.2
G50A G62A G117A	-1.7
A49G A106G	-1.08
A49G C57U C75A U146G	≤ -4.2
G50A U90C C96G A115U	≤ -4.2
G50A A91U	≤ -4.2
A49C C93A C103G G117U C149G	≤ -4.2
G50A C51A C114U U134C G136A U151G	≤ -4.2
G50A C95U C125U	-2.44
A49C G68A U102G A107G	≤ -4.2
A49U U53A G92U C116A	-1.33
A49C U55A G143C	≤ -4.2
A49C G58C A66G C93G A107U A120U	≤ -4.2
G50A A52C A97G G100A C114G G133U	≤ -4.2
G50A C69U G84U A98U A122G	≤ -4.2
A49G G83A U144G A147U	-1.87
G50A U53A U55A U56A G67C G92A G126U	≤ -4.2
G50C C57G C95A A115C	≤ -4.2
G50C C63G C96A C118U A119C	-0.626

— the RNAGym collection of RNA variant scans (doi:10.1073/pnas.2313332121)
